Biological target: T1, His-Plk1 WT (human, UniProt P53350 1-603)
T1 construct: polo-like kinase 1 (Plk1), human; PCR product of the human Plk1 gene cloned into pET-28a; also called recombinant His-Plk1; His6-tagged Plk1 WT; source: E. coli BL21 DE3, purified (Ni2+-NTA-agarose)
Experiment: pull-down; recombinant Chk1 incubated with recombinant His-Plk1, pulled down with Ni-beads; immunoblotting
Conditions: both partners purified

T1 sequence (P53350 whole entry): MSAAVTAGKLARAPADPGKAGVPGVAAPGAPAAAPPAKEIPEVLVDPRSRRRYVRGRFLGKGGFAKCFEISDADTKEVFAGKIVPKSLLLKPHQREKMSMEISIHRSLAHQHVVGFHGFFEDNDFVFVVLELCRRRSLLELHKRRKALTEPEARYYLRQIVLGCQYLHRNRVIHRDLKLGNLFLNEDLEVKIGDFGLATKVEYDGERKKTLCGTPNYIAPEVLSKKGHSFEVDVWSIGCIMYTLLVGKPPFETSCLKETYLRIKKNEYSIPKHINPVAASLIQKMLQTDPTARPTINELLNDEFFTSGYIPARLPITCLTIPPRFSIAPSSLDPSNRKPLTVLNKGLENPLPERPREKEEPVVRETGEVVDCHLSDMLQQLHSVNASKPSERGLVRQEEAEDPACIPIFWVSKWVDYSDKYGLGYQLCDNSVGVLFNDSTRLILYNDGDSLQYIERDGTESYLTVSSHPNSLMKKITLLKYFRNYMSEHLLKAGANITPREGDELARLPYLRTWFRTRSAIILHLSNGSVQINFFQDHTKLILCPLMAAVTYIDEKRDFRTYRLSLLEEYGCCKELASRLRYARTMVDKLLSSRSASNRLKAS

B1: recombinant Chk1 (enzyme, human, UniProt O14757 1-476, looked up)
chain: MAVPFVEDWDLVQTLGEGAYGEVQLAVNRVTEEAVAVKIVDMKRAVDCPENIKKEICINKMLNHENVVKFYGHRREGNIQYLFLEYCSGGELFDRIEPDIGMPEPDAQRFFHQLMAGVVYLHGIGITHRDIKPENLLLDERDNLKISDFGLATVFRYNNRERLLNKMCGTLPYVAPELLKRREFHAEPVDVWSCGIVLTAMLAGELPWDQPSDSCQEYSDWKEKKTYLNPWKKIDSAPLALLHKILVENPSARITIPDIKKDRWYNKPLKKGAKRPRVTSGGVSESPSGFSKHIQSNLDFSPVNSASSEENVKYSSSQPEPRTGLSLWDTSPSYIDKLVQGISFSQPTCPDHMLLNSQLLGTPGSSQNPWQRLVKRMTRFFTKLDADKSYQCLKETCEKLGYQWKKSCMNQVTISTTDRRNNKLIFKVNLLEMDDKILVDFRLSKGDGLEFKRHFLKIKGKLIDIVSSQKIWLPAT
notes: checkpoint kinase 1 (Chk1), human recombinant kinase; the SignalChem kinase is named only for the kinase assay; also called human recombinant Chk1 kinase; checkpoint kinase 1; source: bought: SignalChem (named for the kinase assay)
binding result: binds
